As usually defined, the IC50 is the point on the concentration scale where inhibition reaches its midpoint.

This passage reports IC50 and Kd results from publication PMC11573612 (Molecular Therapy, 2024).

Assay [1] addresses T1, PD-L1 of the PD-1 [Biotinylated]: PD-L1 Inhibitor Screening ELISA Assay Pair (Acro Biosystems EP-101) (UniProt Q9NZQ7 19-238).
T1 construct: PD-L1 of a bought ELISA assay pair; The construct is described only by the kit's manufacturer; source: bought: Acro Biosystems (EP-101 assay pair)
Kind of assay: ELISA; competition: PD-1 [Biotinylated]: PD-L1 Inhibitor Screening ELISA Assay Pair (Acro Biosystems EP-101) with recombinant VSTM2A as inhibitor. The settings on record: both partners purified. (An ELISA detects its analyte on a solid surface through an enzyme-linked reagent.)

Assay [2] addresses T2, Recombinant human PD-L1 Fc chimera protein (R&D Systems 156-B7) (human, UniProt Q9NZQ7 19-238).
T2 construct: PD-L1, human, recombinant Fc chimera; also called recombinant human PD-L1 chimera protein; source: bought: R&D Systems (156-B7)
Nature of the assay: ELISA; titration ELISA; 5 μg/mL PD-L1 Fc chimera immobilised on the plate at 4 °C for 12 h, blocked with 5% BSA; VSTM2A serial dilution (start 100 μg/mL) for 2 h at room temperature; fixed with DTSSP; pNPP, OD405; one-site specific binding fit; apparent KD. The settings on record: both partners purified.

T2 sequence (Q9NZQ7 19-238, change not shown): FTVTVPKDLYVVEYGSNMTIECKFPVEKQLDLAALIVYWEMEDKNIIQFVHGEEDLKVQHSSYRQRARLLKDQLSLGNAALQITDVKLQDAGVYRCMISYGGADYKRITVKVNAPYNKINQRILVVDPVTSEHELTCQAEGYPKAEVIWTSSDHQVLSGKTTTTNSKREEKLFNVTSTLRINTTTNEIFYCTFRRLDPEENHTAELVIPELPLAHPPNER
T1 sequence (Q9NZQ7 19-238): as the sequence (Q9NZQ7 19-238, change not shown) above

B1: Recombinant human VSTM2A His-tag protein (R&D Systems 10037-VT-050, carrier-free) (ligand, UniProt Q8TAG5 25-236, looked up)
chain: SQAKFTEFPRNVTATEGQNVEMSCAFQSGSASVYLEIQWWFLRGPEDLDPGAEGAGAQVELLPDRDPDSDGTKISTVKVQGNDISHKLQISKVRKKDEGLYECRVTDANYGELQEHKAQAYLKVNANSHARRMQAFEASPMWLQDMKPRKNVSAAIPSSIHGSANQRTHSTSSPQVVAKIPKQSPQSGARIATSHGLSVLLLVCGFVKGALL
notes: VSTM2A, human, recombinant; also called recombinant VSTM2A; VSTM2A recombinant protein; source: bought: R&D Systems (10037-VT-050, carrier-free version)
With B1, in assay [1], the IC50 was determined as 4.51 nM. Besides, the Kd in assay [2] lay in the range of 0.7 to 2.5 nM.
